In patent US20230346773A1, “USE OF PCSK9 INHIBITOR IN PREPARATION OF PRODUCT FOR TREATING MULTIPLE DISEASES” (priority 2020, published 2023):
Marks after values point to notes of the source that are not given here.

Columns and labels:
[1] = test system: vitiligo guinea pig model caused by hydroquinone depigmentation; test: Vitiligo guinea pig model caused by hydroquinone depigmentation: counts of epidermal MC and melanin-granule-containing basal cells; type: in vivo; settings: guinea pig skin after hydroquinone decolorization, drug once a day for 30 days, n = 10, x ± s
Method: 10 in each group, Half male and female. Except for the blank control group, the other groups were smeared with 5% hydroquinone in the hair removal area for decolorization, 0.5 mL each time, twice a day, and the animals in the blank control group were smeared with an equal amount of normal saline every day. […] After modeling, the drug was administered in the above manner, once a day for 30 days.
After the observation, the mice were sacrificed, and the skin tissue on the back about 3 cm×3 cm was cut for histopathological examination.
The excised mouse skin tissue was fixed in 10% formalin for 1 hour, washed with running water for 3-4 min, and placed into a phosphate buffer solution (pH 7.4) containing 0.1% dihydroxyphenylalanine, and let stand at 37° C. for 1 hour. Then it was replaced with fresh Dopa reagent and left at 37° C. for 12 hours, rinsed with running water, and fixed with Bouin's solution continuously for 24 h. After the specimens were taken out, it was rinsed with running water for 4 hours, dehydrated, cleared in xylene, embedded in paraffin, deparaffinized to water, and stained with hematoxylin-eosin for contrast. Dehydrated and routinely mounted. After Dopa-oxidase staining, brownish-black staining was MC positive.
The excised mouse skin tissue was fixed in 10% formalin, dehydrated, cleared with xylene, embedded in paraffin, sectioned, deparaffinized to water, washed with distilled water several times, then stained with Lillie reagent, soaked with ferric chloride and potassium ferricyanide mixed solution for 15-20 minutes, then differentiated with 1% acetic acid aqueous solution for several minutes, washed with distilled water several times, then quickly dehydrated with 95% ethanol and absolute ethanol, cleared in xylene, and sealed with neutral gum. If melanin was dark green after Lillie reagent staining, it was positive.

[2] = test system: rabbit ear acne model; test: Rabbit ear acne model induced by 2% coal tar; type: in vivo, New Zealand rabbits; settings: n = 10
Text: The inner side of the right ear of the rabbits was taken as the observation area, the left ear of all rabbits was used as the self-negative control, and 95% alcohol was applied. The inner side of the right ear of the model group and the treatment group were smeared with 2% coal tar (Alfa Aesar China Company, 2% coal tar solution made with 95% alcohol), and evenly applied to the opening of the ear canal on the inner side of the rabbit ear with a sterile cotton swab in a range of about 2 cm×2 cm, once a day, 0.5 mL each time. Then the previous application was wiped with warm water. […] 18 hours after the last coating, the samples were sacrificed, fixed in 10% formaldehyde, embedded in paraffin, and stained with HE for histopathological analysis.
Histological grading standard of the acne model: […], according to histology. Grade 0 means that there are only loose keratinized cells in the infundibulum, without acne forming the “1”; grade 1: the skin on the surface of the rabbit ear is red, or a small amount of dense keratinized material is seen in the infundibulum of the hair follicle, and the infundibulum is not expanded “+”; grade 2: moderately dense keratinized material is seen in the infundibulum of the hair follicle, and it extends to the sebaceous glands, with the proliferation of sebaceous gland ducts, the infundibulum expands by “2+”; grade 3: extensive keratinized material in the hair follicle. Tight keratin embolism in hair follicles causes severe expansion of hair follicles, obvious hyperplasia of sebaceous duct epithelium, skin bulges and scars, and some sebaceous glands degenerate into “3+”.
Histopathological changes were observed under a microscope, and the thickness of 5 different epidermises on a slice was measured with the Biomias99 image analysis system, and the average value was calculated; the area of two hair follicles with the same position and the most complete structure and the diameter of four sebaceous glands were detected, and the average value of each was calculated, and then the data of the left and right external auditory canals of each group were subtracted to obtain the difference in the thickness of the epidermis, the difference in hair follicle area and the diameter of the sebaceous gland in the left and right ears of each rabbit.

[3] = test system: hair follicles / hair growth in depilated C57BL/6 mice; test: Hair growth in C57BL/6 mice after rosin/paraffin depilation; type: in vivo
Method: SPF grade C57BL/6 mice were selected and numbered according to their weight. They were randomly divided into compound group 1 (skin applied with 2% R-IMPP solution), compound group 2 (skin applied with 2% PF 06446846 solution), and compound group 3 (skin applied with 2% SBC-115076 solution), compound group 4 (skin applied with 2% SBC-110736 solution), monoclonal antibody group 1 (PCSK9subcutaneous injection monoclonal antibody ab81041, 5 mg/kg·d), monoclonal antibody group 2 (Subcutaneous injection of Evolocumab, 5 mg/kg·d), monoclonal antibody group 3 (subcutaneous injection of Alirocumab, 5 mg/kg·d), PCSK9 RNA interference group-1 (skin applied with 2% PCSK9 small interfering RNA-1 solution), PCSK9 RNA interference Group-2 (skin applied with 2% PCSK9 small interfering RNA-2 solution), PCSK9 RNA interference group-3 (skin applied with 2% PCSK9 small interfering RNA-3 solution), polypeptide group (subcutaneous injection of Abcam company ab32727, 3 mg/kg·d), positive control group (skin applied with 2% minoxidil solution), negative control group (skin applied with 60% ethanol), and model control group (skin applied with 60% ethanol), 10 mice in each group, half male and half female. After the mice were anesthetized with ether, they were coated on the back with a mixture of rosin and paraffin (1:1) after hot melting, and then peeled off after it solidified and hardened. The back of the mouse was cleaned to be hairless and without injuries. The depilation area was about 3 cm×4 cm. From the 2nd day after depilation, the corresponding drugs were applied to the hair removal area, twice a day, 0.5 mL per animal each time, and subcutaneously injected once a week.
From the second day after application, observe the daily color change of the skin on the back of the mice to determine the growth state of the hair follicles and visually observe the hair growth in the depilation area, and score the new hair growth in the depilation area once a day. Five mice in each group were reserved for 40 days of visual observation, and the growth of back hair was recorded.
On the 17th day, five mice in each group were sacrificed by cervical dislocation. The samples were taken from the same part of the back parallel to the spine, fixed with 10% formaldehyde, dehydrated, embedded in paraffin, sectioned, stained with HE, and sealed with neutral gum. Then the histology of hair follicles was observed under light microscope, and morphological staging of hair follicles was performed. According to the international hair cycle scoring method, the hair follicles were scored as follows: 100 points for growth stage VI, 200 points for early regression, 300 points for middle regression, and 400 points for late regression. 50 hair follicles were randomly selected from each mouse, the cycle of the hair follicles in each group was determined, and the average hair cycle score and the percentage of hair follicles in the growth phase VI, early regression, middle regression, and late regression were calculated.

[4] = hair removal area on the back of mice, after hair removal

B1: Evolocumab (antibody, chains of the INN, looked up, V domains shown)
VH: EVQLVQSGAEVKKPGASVKVSCKASGYTLTSYGISWVRQAPGQGLEWMGWVSFYNGNTNYAQKLQGRGTMTTDPSTSTAYMELRSLRSDDTAVYYCARGYGMDVWGQGTTVTVSS
VL: ESALTQPASVSGSPGQSITISCTGTSSDVGGYNSVSWYQQHPGKAPKLMIYEVSNRPSGVSNRFSGSKSGNTASLTISGLQAEDEADYYCNSYTSTSMVFGGGTKLTVL
notes: PCSK9 monoclonal antibody jointly developed by Amgen and Astellas, trade name Repatha
Epidermal melanocyte count ([1]; average number of MCs in each 100 epidermal basal cells): 46.2 ± 3.8
Basal cells containing melanin granules count ([1]; average number per 100 epidermal basal cells): 41.2 ± 3.9
Skin thickness ([2]; rabbit ear epidermis): 0.1532 ± 0.0156 mm
Hair follicle area ([2]; rabbit ear): 0.1533 ± 0.0562* mm^2
Sebaceous gland diameter ([2]; rabbit ear): 0.0432 ± 0.0267 mm
Histological grading of acne: number of animals graded − ([2]; right ear, grade 0: only loose keratinized cells in the infundibulum, without acne): 9
Histological grading of acne: number of animals graded 1+ ([2]; right ear, grade 1: small amount of dense keratinized material, infundibulum not expanded): 1
Histological grading of acne: number of animals graded 2+ ([2]; right ear, grade 2: moderately dense keratinized material extending to sebaceous glands, infundibulum expands): 0
Histological grading of acne: number of animals graded 3+ ([2]; right ear, grade 3: extensive keratinized material, severe expansion of hair follicles): 0
Time from hair growth to the same length as the hair in the non-experimental area ([3]; back hair removal area of mice): 9.89* days
Time to grow new hair ([3]; back hair removal area of mice): 5.78* days
Time to match the length of hair in the non-experimental area ([3]; back hair removal area of mice): 16.68* days
Black skin duration ([3]; hair removal area on the back of mice): 10.21* days
Skin black-turning time [3, 4]: 5.23* days
Skin grayish-black-turning time [3, 4]: 16.83* days
